Read-outs that look alike come from different tables or passages of the source.
Legend:
[1] = biological target: human PD-L2 on CHO-K1 cells of the Promega PD-1/PD-L2 blockade bioassay (human) (UniProt Q9BQ51)
[2] = biological target: human PD-L2 on CHO-K1 cells over-expressing hPDL2-GFP (human) (UniProt Q9BQ51); assay: flow cytometry blocking assay: antibody titrated against recombinant hPD-1 (constant 15 micrograms/mL) binding to CHO-K1 cells expressing hPD-L2; signal falls with the antibody; column head on the sheet is EC50
human PD-L2 on CHO-K1 cells over-expressing hPDL2-GFP (human), sequence (Q9BQ51 20-273): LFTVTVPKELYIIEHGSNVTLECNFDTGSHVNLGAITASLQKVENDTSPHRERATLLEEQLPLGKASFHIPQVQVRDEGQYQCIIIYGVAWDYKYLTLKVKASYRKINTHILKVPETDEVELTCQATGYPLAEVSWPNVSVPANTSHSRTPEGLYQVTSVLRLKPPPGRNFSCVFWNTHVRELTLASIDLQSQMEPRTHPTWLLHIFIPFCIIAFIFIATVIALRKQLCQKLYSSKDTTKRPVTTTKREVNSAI

[3] = biological target: human PD-L2 on CHO-K1 cells of the Promega PD-1/PD-L2 blockade bioassay (human) (UniProt Q9BQ51); remark: listed apart in the source
[4] = biological target: human PD-L2 on CHO-K1 cells over-expressing hPDL2-GFP (human) (UniProt Q9BQ51); assay: binding to cellular PDL2 (FIG. 1A by the text; flow cytometry on CHO-K1 cells expressing hPD-L2)
[5] = biological target: human PD-L2 on CHO-K1 cells over-expressing hPDL2-GFP (human) (UniProt Q9BQ51); assay: flow cytometry on CHO-K1 cells expressing hPD-L2, median fluorescence
[6] = biological target: mouse PD-L2 on CHO-K1 cells over-expressing mPD-L2 GFP (mouse) (UniProt Q9WUL5); assay: flow cytometry on CHO-K1 cells overexpressing mPD-L2, mean fluorescence
mouse PD-L2 on CHO-K1 cells over-expressing mPD-L2 GFP (mouse), sequence (Q9WUL5 20-247): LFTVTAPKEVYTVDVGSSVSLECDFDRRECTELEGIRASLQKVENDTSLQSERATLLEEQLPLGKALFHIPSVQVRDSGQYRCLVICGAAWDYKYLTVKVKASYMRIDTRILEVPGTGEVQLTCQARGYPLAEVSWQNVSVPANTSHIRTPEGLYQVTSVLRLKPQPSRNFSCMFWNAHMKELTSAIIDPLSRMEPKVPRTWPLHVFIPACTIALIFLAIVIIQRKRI

human PD-L2 on CHO-K1 cells of the Promega PD-1/PD-L2 blockade bioassay (human), sequence (Q9BQ51 20-273): as the sequence (Q9BQ51 20-273) above

| Substance | EC50 (PD-1/PD-L2 blockade reporter assay, luminescence) [1] [nM] | EC50 [2] [nM] | EC50 (PD-1/PD-L2 blockade reporter assay, luminescence) [3] [nM] | EC50 [4] [nM] | EC50 [5] [nM] | EC50 [6] [nM] |
| --- | --- | --- | --- | --- | --- | --- |
| MIH-18 (commercially available anti-PD-L2 monoclonal antibody) | 1.32 | 2.99 | 1.71 | 0.618 | 1.65 |  |
| TY25 (antibody) |  |  |  |  |  | 0.64 |
| 24F.10C12 (commercially available anti-PD-L2 monoclonal antibody) |  | 1.14 | 1.78 | 0.7 | 1.18 |  |

From patent US20250179187A1, “ANTI PD-L2 ANTIBODY” (REJUVERON SENESCENCE THERAPEUTICS AG, priority 2022, published 2025)
